The text below walks through data of patent US20250018038A1 (UNIVERSITY OF CHICAGO, published 2025).

One assay concerns the target T1, Bor-N (Biotinylated Avi tag, held on neutravidin; not in the letters).
T1 construct: also called Bor N: 20-88; Borealin N-terminal domain; not shown: Avi tag, and any purification tag or linker
T1 chain: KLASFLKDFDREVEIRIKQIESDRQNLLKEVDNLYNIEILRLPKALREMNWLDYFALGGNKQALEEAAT
The assay is described as follows: single point protein ELISA, 50 nM immobilised target. On the procedure:
(§1) To rapidly reconfirm the binding and specificity of the obtained Fabs after reformatting into the expression vectors single-point Fab ELISA was performed (FIG. 2-3). Briefly, 50 nM Avi-tagged targets were immobilized on the prepared NAV-coated and blocked with 0.5% BSA in PBS 96-well ELISA plates. The target coated plates were washed with appropriate buffer (TBST or PBST) and were incubated with 200 nM Fab for 20 minutes and then washed. The washed plates were incubated with protein L conjugated with HRP (1:5000 diluted in TBST) for 30 minutes. Plates were washed and the reaction was developed using the TMB chromogenic substrate (Thermofisher) and subsequently quenched with 1M HCl. Absorbance was read at 450 nm on Epoch plate reader.
On the technique in general: ELISA stands for enzyme-linked immunosorbent assay.

In the next assay the target is T2, Bor-C (Biotinylated Avi tag, held on neutravidin; not in the letters).
T2 construct: also called Bor C: 207-280; Borealin C-terminal domain; not shown: Avi tag, and any purification tag or linker
T2 chain: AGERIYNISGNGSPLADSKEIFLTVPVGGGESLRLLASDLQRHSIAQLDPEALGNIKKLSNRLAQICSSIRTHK
The description is as above. On the procedure:
as §1

The target of assay [1] is T3, cell surface survivin on cancer cells (human, UniProt O15392 1-142).
T3 construct: whole, on cells
The experiment in a line: flow cytometry of live cells, 200 nM Fab, anti-human F(ab')2-A647 secondary. On the procedure:
Human or murine tumor cells were trypsinized, washed and resuspended in Flow buffer (1×PBS supplemented with 2% FBS) and added to a 96-well plate (#3799, Costar). 200 nM primary CPC Fab was mixed with 0.5M cells and incubated at 37 C for 20 min. […] Samples were analyzed by flow cytometry using CytoFLEX (Beckman Coulter) and mean fluorescence intensity (MFI) data was extracted using the FlowJo software (FIG. 5A-E, FIG. 6). Human peripheral blood mononuclear cells (PBMCs) derived from a single patient were used as a source of healthy human cells. PBMCs were counted, split and spun down 400×g 5 min. Cells were resuspended in Flow buffer (1×PBS supplemented with 2% FBS) and pre-incubated with TruStain FcX (1:20, Biolegend 422302) for 10 min at 37 C, followed by 200 nM primary Fab incubation at 37 for 20 min. […] Mean fluorescence intensity (MFI) data was extracted using the FlowJo software (FIG. 5F).
(In general: A flow cytometer gives signals particle by particle.)

T3 sequence (O15392 whole entry): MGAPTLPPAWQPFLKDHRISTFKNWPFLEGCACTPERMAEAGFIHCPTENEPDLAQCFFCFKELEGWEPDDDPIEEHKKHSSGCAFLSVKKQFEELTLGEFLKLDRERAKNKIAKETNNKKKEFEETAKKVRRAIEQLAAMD

B1: SUR-N-45 Fab (Fab, V domains shown)
VH: EVQLVESGGGLVQPGGSLRLSCAASGFNLSSSSIHWVRQAPGKGLEWVASISSYSGYTYYADSVKGRFTISADTSKNTAYLQMNSLRAEDTAVYYCARPHWNSSYFSGWAMDYWGQGTLVTVSS
VL: DIQMTQSPSSLSASVGDRVTITCRASQSVSSAVAWYQQKPGKAPKLLIYSASSLYSGVPSRFSGSRSGTDFTLTISSLQPEDFATYYCQQWSSKSPITFGQGTKVEIKR
On to B1, for which the binding result in the assay with Bor-N was “no binding (tested: 200 nM)”; with Bor-C, “no binding (tested: 200 nM)”; in assay [1] it was “binds”.
